Experimental findings from US20170022281A1 (AbbVie / Abbott, published 2017) are described below.

Assay [1] has as its target T1, mouse PRLR ECD-Fc fusion protein (mouse, UniProt Q08501 20-229).
T1 construct: extracellular domain; not shown: Fc region (captured by goat anti-human Fc)
T1 sequence (looked up): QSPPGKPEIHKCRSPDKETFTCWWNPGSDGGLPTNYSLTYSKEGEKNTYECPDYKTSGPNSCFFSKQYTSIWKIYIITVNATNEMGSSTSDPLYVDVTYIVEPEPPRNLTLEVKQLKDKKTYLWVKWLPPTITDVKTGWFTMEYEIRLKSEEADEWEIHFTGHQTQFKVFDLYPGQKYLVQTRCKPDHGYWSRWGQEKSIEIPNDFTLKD
Kind of assay: ELISA on ECD. Summed up: (§1)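 EC50 values derive from fitted binding curves of antibody serial dilutions (1 h) on captured PRLR. Detection used an HRP-conjugated secondary (1 h), TMB development for 3–5 min, an H₂SO₄ stop and a 450 nm read, with all steps in Tween/PBS pH 7.4 buffer.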
(ELISA stands for enzyme-linked immunosorbent assay.)

Assay [2] deals with T2, cyno PRLR ECD-his6 protein (cyno).
T2 chain: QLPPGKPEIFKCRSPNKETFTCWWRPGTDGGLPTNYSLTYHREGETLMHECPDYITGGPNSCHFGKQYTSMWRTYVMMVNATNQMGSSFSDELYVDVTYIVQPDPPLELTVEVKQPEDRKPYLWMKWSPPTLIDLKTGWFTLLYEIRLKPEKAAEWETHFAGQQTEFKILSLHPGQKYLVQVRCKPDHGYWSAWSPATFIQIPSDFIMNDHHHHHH
Kind of assay: ELISA on ECD. The procedure, abridged: as §1

For assay [3], the target named is T3, rat PRLR ECD-Fc fusion protein (rat, UniProt P05710 20-229).
T3 construct: extracellular domain; not shown: Fc region (captured by goat anti-human Fc)
T3 sequence (looked up): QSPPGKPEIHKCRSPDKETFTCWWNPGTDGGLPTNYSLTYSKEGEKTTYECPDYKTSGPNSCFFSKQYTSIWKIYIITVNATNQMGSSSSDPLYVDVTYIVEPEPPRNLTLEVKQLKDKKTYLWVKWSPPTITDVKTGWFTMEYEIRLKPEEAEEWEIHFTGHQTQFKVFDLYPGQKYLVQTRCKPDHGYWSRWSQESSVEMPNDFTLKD
In words: ELISA on ECD. The procedure, abridged: as §1

Assay [4] addresses cyno PRLR on Baf3-cyPRLR cells (cyno). In words: cell-based or functional assay.
Assay [5] has as its target T4, human PRLR on cells (human, UniProt P16471 25-622).
T4 sequence: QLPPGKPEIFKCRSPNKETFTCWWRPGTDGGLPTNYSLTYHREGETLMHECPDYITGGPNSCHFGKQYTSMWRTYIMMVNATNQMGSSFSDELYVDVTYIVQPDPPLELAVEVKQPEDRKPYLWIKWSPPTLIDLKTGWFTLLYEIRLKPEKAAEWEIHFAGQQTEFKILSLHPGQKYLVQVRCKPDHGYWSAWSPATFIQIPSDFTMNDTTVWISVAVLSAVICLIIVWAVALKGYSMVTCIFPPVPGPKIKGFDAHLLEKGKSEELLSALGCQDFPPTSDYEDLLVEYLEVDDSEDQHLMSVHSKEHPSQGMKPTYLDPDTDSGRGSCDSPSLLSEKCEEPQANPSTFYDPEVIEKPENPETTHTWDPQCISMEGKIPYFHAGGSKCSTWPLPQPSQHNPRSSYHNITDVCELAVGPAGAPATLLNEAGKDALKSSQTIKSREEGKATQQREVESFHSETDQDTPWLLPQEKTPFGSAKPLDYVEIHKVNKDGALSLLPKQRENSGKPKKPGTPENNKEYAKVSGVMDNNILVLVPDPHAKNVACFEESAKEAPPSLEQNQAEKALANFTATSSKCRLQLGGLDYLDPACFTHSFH
In words: cell-based or functional assay.

In assay [6] the target is T5, murine PRLR (Biacore antigen) (murine, UniProt Q08501 20-229, limits assumed).
T5 construct: also called muPRLR
T5 sequence (looked up): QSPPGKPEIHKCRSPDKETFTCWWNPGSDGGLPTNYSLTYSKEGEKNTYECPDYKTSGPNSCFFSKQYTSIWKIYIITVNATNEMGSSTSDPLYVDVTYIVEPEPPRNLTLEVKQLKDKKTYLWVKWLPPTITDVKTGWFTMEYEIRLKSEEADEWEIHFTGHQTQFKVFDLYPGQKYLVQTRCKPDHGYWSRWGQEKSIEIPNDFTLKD
Kind of assay: SPR Biacore. The procedure, abridged:
(§2)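 Association rate, dissociation rate and dissociation constant were measured by surface plasmon resonance on a Biacore instrument. PRLR antigen was tested at 600 nM, 66.67 nM and 7.41 nM, a 3-point, 9-fold dilution series. Constants came from a 1:1 binding model fit (local Rmax, mass-transport term included) in Biacore T200 Evaluation Software.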
For orientation: SPR reads the build-up and loss of mass on a sensor chip optically.

The target of assay [7] is T6, cyno PRLR (Biacore antigen) (cyno, UniProt A0A2K5WXK1 25-234).
T6 construct: also called cyPRLR
T6 sequence: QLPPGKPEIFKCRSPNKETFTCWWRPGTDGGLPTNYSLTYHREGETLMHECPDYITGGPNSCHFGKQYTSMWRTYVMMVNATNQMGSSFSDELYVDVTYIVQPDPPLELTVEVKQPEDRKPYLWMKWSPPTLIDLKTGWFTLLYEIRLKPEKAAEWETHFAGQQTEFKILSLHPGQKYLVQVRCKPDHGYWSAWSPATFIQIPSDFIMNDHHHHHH
Kind of assay: SPR Biacore. Summed up:
as §2

Assay [8] addresses T7, human PRLR ECD-Fc fusion protein (human, UniProt P16471 25-233).
T7 construct: not shown: Fc region (captured by goat anti-human Fc)
T7 sequence: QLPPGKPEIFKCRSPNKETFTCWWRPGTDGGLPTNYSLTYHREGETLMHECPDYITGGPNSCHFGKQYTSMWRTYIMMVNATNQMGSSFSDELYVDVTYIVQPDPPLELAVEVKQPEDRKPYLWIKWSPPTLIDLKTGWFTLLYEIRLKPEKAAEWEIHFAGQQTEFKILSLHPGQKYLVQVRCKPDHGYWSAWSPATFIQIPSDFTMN
In words: ELISA on ECD. The procedure, abridged: as §1

For assay [9], the target named is T8, human PRLR (Biacore antigen) (human, UniProt P16471 25-234, limits assumed).
T8 construct: The construct injected over captured antibody is not described (a soluble form is likely); also called huPRLR
T8 sequence: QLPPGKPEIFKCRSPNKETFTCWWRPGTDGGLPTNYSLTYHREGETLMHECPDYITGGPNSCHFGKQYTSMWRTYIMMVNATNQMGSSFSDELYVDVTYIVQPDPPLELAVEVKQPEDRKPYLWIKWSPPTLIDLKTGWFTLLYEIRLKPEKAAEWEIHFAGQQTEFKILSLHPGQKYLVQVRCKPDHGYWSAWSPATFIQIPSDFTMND
Kind of assay: SPR Biacore. The procedure, abridged:
as §2

B1: Ab28 (antibody, human IgG1, kappa)
heavy: not shown
light: DVVMTQTPLSLSVTPGQPASISCRSSQRLVHSNGNTYLHWYLQKPGQSPQLLIYKVSNRFSGVPDRFSGSGSGTDFTLKISRVEAEDVGVYYCSQSTHVPWTFGGGTKVEIKRTVAAPSVFIFPPSDEQLKSGTASVVCLLNNFYPREAKVQWKVDNALQSGNSQESVTEQDSKDSTYSLSSTLTLSKADYEKHKVYACEVTHQGLSSPVTKSFNRGEC
notes: humanized from Ab5; G1; also called Ab2 HC.1 and Ab2 LC.1b
Regarding B1, the EC50 (usually the midpoint of the concentration-response curve) was determined as 0.292 nM in [1], 0.0965 nM in [2] and 0.416 nM in assay [3]. In addition, the “Baf3-cyPRLR proliferation IC50” value in assay [4] was found to be 0.31 µg/mL. Further, the “Baf3-hPRLR proliferation IC50” value in [5] was 0.22 µg/mL. In addition, the Kd (in general, a measure of binding affinity in units of concentration) stood at 52 nM in assay [6] and 1.97 nM in assay [7]. Moreover, the koff – broadly, the first-order rate constant of dissociation – was determined as 0.00606 s⁻¹ in assay [6] and 0.000619 s⁻¹ in assay [7]. For the same molecule, the kon (usually the second-order rate constant of association) in assay [6] turned out to be 117000 M⁻¹ s⁻¹; in assay [7] it was 315000 M⁻¹ s⁻¹.

B2: Ab29 (antibody, human IgG1, kappa)
heavy: not shown
light: DIVMTQTPLSLSVTPGQPASISCRSSQRLVHSNGNTYLHWYLQKPGQSPQLLIYKVSNRFSGVPDRFSGSGSGTDFTLKISRVEAEDVGVYYCSQSTHVPWTFGGGTKVEIKRTVAAPSVFIFPPSDEQLKSGTASVVCLLNNFYPREAKVQWKVDNALQSGNSQESVTEQDSKDSTYSLSSTLTLSKADYEKHKVYACEVTHQGLSSPVTKSFNRGEC
notes: humanized from Ab5; G1; also called Ab HC.1a and Ab2 LC.1
B2: the EC50 is 0.269 nM in assay [8], 0.238 nM in [1], 0.153 nM in assay [2] and 0.689 nM in assay [3]. In assay [4], the “Baf3-cyPRLR proliferation IC50” value worked out at 0.23 µg/mL. In addition, in assay [5], the “Baf3-hPRLR proliferation IC50” value was found to be 0.15 µg/mL. Besides, the results for the Kd in assay [6], in [7] and in assay [9] were 53 nM, 2.24 nM and 1.79 nM, respectively. The koff in [6] was 0.00634 s⁻¹; in assay [7] it was 0.000675 s⁻¹; in assay [9], 0.00056 s⁻¹. The kon amounted to 120000 M⁻¹ s⁻¹ in assay [6], 301000 M⁻¹ s⁻¹ in assay [7] and 313000 M⁻¹ s⁻¹ in assay [9].

B3: Ab27 (antibody, human IgG1, kappa, V domains shown)
VH: EVQLVQSGAEVKKPGSSVKVSCKASGYTFTSFWMHWVRQAPGQGLEWMGVIDPSDTYTNYNQKFKGRVTITADESTSTAYMELSSLRSEDTAVYYCARGDYSNWFTYWGQGTLVTVSS
VL: DVVMTQTPLSLSVTPGQPASISCRSSQRLVHSNGNTYLHWYLQKPGQSPQLLIYKVSNRFSGVPDRFSGSGSGTDFTLKISRVEAEDVGVYFCSQSTHVPWTFGGGTKVEIKR
notes: humanized from Ab5; G1; also called Ab2 HC.1 and Ab2 LC.1a
Regarding B3, the EC50 in assay [8] is 0.17 nM; in [1] it was 0.185 nM; in assay [2], 0.102 nM; in assay [3], 0.125 nM. The “Baf3-cyPRLR proliferation IC50” value in [4] was 0.22 µg/mL. Further, the “Baf3-hPRLR proliferation IC50” value in assay [5] was found to be 0.16 µg/mL. Further, the Kd turned out to be 38.3 nM in assay [6], 1.56 nM in [7] and 1.25 nM in [9]. Besides, the koff in assay [6] was determined as 0.00512 s⁻¹; in assay [7], 0.00052 s⁻¹; in [9] it was 0.000443 s⁻¹. The results for the kon in [6], in assay [7] and in [9] were 134000 M⁻¹ s⁻¹, 333000 M⁻¹ s⁻¹ and 356000 M⁻¹ s⁻¹, respectively.

B4: Ab26 (antibody, human IgG1, kappa)
heavy: not shown
light: DIVMTQTPLSLSVTPGQPASISCRSSQRLVHSNGNTYLHWYLQKPGQSPQLLIYKVSNRFSGVPDRFSGSGSGTDFTLKISRVEAEDVGVYYCSQSTHVPWTFGGGTKVEIKRTVAAPSVFIFPPSDEQLKSGTASVVCLLNNFYPREAKVQWKVDNALQSGNSQESVTEQDSKDSTYSLSSTLTLSKADYEKHKVYACEVTHQGLSSPVTKSFNRGEC
notes: humanized from Ab5; G1; also called Ab HC.1 and Ab2 LC.1
In the case of B4, the EC50 in assay [1] is 0.201 nM; in [2], 0.151 nM; in assay [3], 0.164 nM. Besides, in assay [4], the “Baf3-cyPRLR proliferation IC50” value is 0.25 µg/mL. Besides, the “Baf3-hPRLR proliferation IC50” value in assay [5] came to 0.23 µg/mL.
